These results are taken from patent US20260116921A1, “PEPTIDE INHIBITORS OF INTERLEUKIN-23 RECEPTOR AND THEIR USE TO TREAT INFLAMMATORY DISEASES” (priority 2018, published 2026).

For assay [1], the target named is T1, IL-23R (human, UniProt Q5VWK5 24-629).
T1 sequence (looked up): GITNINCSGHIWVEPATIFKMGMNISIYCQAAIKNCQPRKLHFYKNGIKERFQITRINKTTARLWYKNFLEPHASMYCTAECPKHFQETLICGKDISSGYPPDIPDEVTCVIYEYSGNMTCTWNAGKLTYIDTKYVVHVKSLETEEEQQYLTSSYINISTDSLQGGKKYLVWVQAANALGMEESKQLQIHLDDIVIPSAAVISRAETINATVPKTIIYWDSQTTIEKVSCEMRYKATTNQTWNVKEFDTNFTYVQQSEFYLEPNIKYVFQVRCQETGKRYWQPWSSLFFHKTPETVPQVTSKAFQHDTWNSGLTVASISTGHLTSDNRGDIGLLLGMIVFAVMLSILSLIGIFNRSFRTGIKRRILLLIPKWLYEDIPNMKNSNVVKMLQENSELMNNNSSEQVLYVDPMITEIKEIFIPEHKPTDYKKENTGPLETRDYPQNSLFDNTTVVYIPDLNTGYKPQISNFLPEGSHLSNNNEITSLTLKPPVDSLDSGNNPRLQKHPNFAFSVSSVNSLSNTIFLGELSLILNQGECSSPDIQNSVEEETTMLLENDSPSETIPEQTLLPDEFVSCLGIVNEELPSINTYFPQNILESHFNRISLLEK
Nature of the assay: cell-based or functional assay.

Assay [2] concerns the target T1, IL-23R. The experiment in a line: cell-based or functional assay. The source holds these as a separate data set.

Bridge positions count the residues as written; N and C are the ends. Square brackets hold non-standard residues; d marks the D form. Trp(4-OMe) = COc1cccc2[nH]cc(C[C@H](N)C(=O)O)c12; Trp(5-Cl) = N[C@@H](Cc1c[nH]c2ccc(Cl)cc12)C(=O)O; Trp(5-OH) = N[C@@H](Cc1c[nH]c2ccc(O)cc12)C(=O)O; AEF = NCCOc1ccc(C[C@H](N)C(=O)O)cc1; αMeL = CC(C)C[C@](C)(N)C(=O)O; Pen = CC(C)(S)[C@H](N)C(=O)O

B1: SEQ ID NO: 12 (peptide)
peptide: Ac-[Pen]NTWQ[Pen][AEF][Trp(5-Cl)][αMeL]K(Ac)NN-NH2
modifications: disulfide 1-6
SMILES: CC(=O)NCCCC[C@H](NC(=O)[C@](C)(CC(C)C)NC(=O)[C@H](Cc1c[nH]c2ccc(Cl)cc12)NC(=O)[C@H](Cc1ccc(OCCN)cc1)NC(=O)[C@H]1NC(=O)[C@H](CCC(N)=O)NC(=O)[C@H](Cc2c[nH]c3ccccc23)NC(=O)[C@H]([C@@H](C)O)NC(=O)[C@H](CC(N)=O)NC(=O)[C@@H](NC(C)=O)C(C)(C)SSC1(C)C)C(=O)N[C@@H](CC(N)=O)C(=O)N[C@@H](CC(N)=O)C(N)=O
On to B1, for which the “pStat3 HTRF (nM) IC50” value with IL-23R [1] was over 100 nM.

B2: SEQ ID NO: 11 (peptide)
peptide: XNTXQXXXXKNN
modifications: Ac-[Pen]-NT-[W(5-Br)]-Gln-[Pen]-[Phe[4-(2-aminoethoxy)]-[2-Nal]-[α-MeLeu]-[Lys(Ac)]-NN-NH2; Pen-Pen disulfide
In the case of B2, the “pStat3 HTRF (nM) IC50” value with IL-23R [1] was over 100 nM.

B3: SEQ ID NO: 6 (peptide)
peptide: XNTXQXXXXKNN
modifications: Ac-[Pen]-NT-[W(7-Me)]-Gln-[Pen]-[Phe[4-(2-aminoethoxy)]-[2-Nal]-[α-MeLeu]-[Lys(Ac)]-NN-NH2; Pen-Pen disulfide
Turning to B3, the “NK Cell Assay (nM) IC50” value with IL-23R [2] was under 10 nM. In addition, the “pStat3 HTRF (nM) IC50” value with IL-23R [1] was under 1 nM.

B4: SEQ ID NO: 15 (peptide)
peptide: Ac-[Pen]NTWQ[Pen][AEF][Trp(4-OMe)][αMeL]K(Ac)NN-NH2
modifications: disulfide 1-6
SMILES: COc1cccc2[nH]cc(C[C@H](NC(=O)[C@H](Cc3ccc(OCCN)cc3)NC(=O)[C@H]3NC(=O)[C@H](CCC(N)=O)NC(=O)[C@H](Cc4c[nH]c5ccccc45)NC(=O)[C@H]([C@@H](C)O)NC(=O)[C@H](CC(N)=O)NC(=O)[C@@H](NC(C)=O)C(C)(C)SSC3(C)C)C(=O)N[C@@](C)(CC(C)C)C(=O)N[C@@H](CCCCNC(C)=O)C(=O)N[C@@H](CC(N)=O)C(=O)N[C@@H](CC(N)=O)C(N)=O)c12
As to B4, the “pStat3 HTRF (nM) IC50” value with IL-23R [1] was over 100 nM.

B5: SEQ ID NO: 10 (peptide)
peptide: XNTXQXXXXKNN
modifications: Ac-[Pen]-NT-[W(5-OH)]-Gln-[Pen]-[Phe[4-(2-aminoethoxy)]-[2-Nal]-[α-MeLeu]-[Lys(Ac)]-NN-NH2; Pen-Pen disulfide
Take B5: the “pStat3 HTRF (nM) IC50” value with IL-23R [1] was over 100 nM.

B6: SEQ ID NO: 9 (peptide)
peptide: XNTXQXXXXKNN
modifications: Ac-[Pen]-NT-[W(5-OMe)]-Gln-[Pen]-[Phe[4-(2-aminoethoxy)]-[2-Nal]-[α-MeLeu]-[Lys(Ac)]-NN-NH2; Pen-Pen disulfide
Take B6: the “pStat3 HTRF (nM) IC50” value in the assay with IL-23R [1] is over 100 nM.

B7: SEQ ID NO: 21 (peptide)
peptide: Ac-[Pen]NTWQ[Pen][AEF][Trp(5-OH)][αMeL]K(Ac)NN-NH2
modifications: disulfide 1-6
SMILES: CC(=O)NCCCC[C@H](NC(=O)[C@](C)(CC(C)C)NC(=O)[C@H](Cc1c[nH]c2ccc(O)cc12)NC(=O)[C@H](Cc1ccc(OCCN)cc1)NC(=O)[C@H]1NC(=O)[C@H](CCC(N)=O)NC(=O)[C@H](Cc2c[nH]c3ccccc23)NC(=O)[C@H]([C@@H](C)O)NC(=O)[C@H](CC(N)=O)NC(=O)[C@@H](NC(C)=O)C(C)(C)SSC1(C)C)C(=O)N[C@@H](CC(N)=O)C(=O)N[C@@H](CC(N)=O)C(N)=O
As to B7, the “pStat3 HTRF (nM) IC50” value in the assay with IL-23R [1] is over 100 nM.
